# B1: recombinant human CXCL17 (24–119) (natural protein, UniProt Q6UXB2 24-119, looked up)
# chain: LNPGVARGHRDRGQASRRWLQEGGQECECKDWFLRAPRRKFMTVSGLPKKQCPCDHFKGNVKKTRHQRHHRKPNKHSRACQQFLKQCQLRSFALPL
# notes: human CXCL17, residues 24-119 (Leu24–Leu119), the commercially available form without the predicted signal peptide; UniProt Q6UXB2; The text calls the protein on the blots commercially available; also called Leu24–Leu119 form of CXCL17; source: bought: R&D Systems; produced in E. coli
# Target: the molecule itself
# Test: reducing SDS-PAGE and Western blot; serial dilutions of recombinant CXCL17 (24–119), 1.25–10 μM, resolved by reducing SDS-PAGE and probed with anti-CXCL17; bands of 14 kDa and 28 kDa read as monomer and dimer; the 28-kDa species seen at 5 μM and above
protein,measurement,value
B1,ratio of monomer:dimer,~3 monomer:dimer

# Reference: PMC10628517, “CXCL17 binds efficaciously to glycosaminoglycans with the potential to modulate chemokine signaling” (Frontiers in Immunology, 2023)
